Assay results as given in article PMC6925385, “Dual role of a GTPase conformational switch for membrane fusion by mitofusin ubiquitylation” (Life Science Alliance, 2019).

Biological target: the molecule itself
Experiment: sucrose gradient centrifugation; crude mitochondrial extracts solubilized with 1% digitonin at low protein density (pellet in 500 μl, 10× less dense); 5-25% sucrose gradient, 14-16 h at 4°C; fractions blotted for HA

B1: HA-tagged Fzo1 (yeast mitofusin), wild type (natural protein, yeast (strains isogenic to S288c), UniProt P38297 1-855, looked up)
chain: MSEGKQQFKDSNKPHKDSTDQDDDAATIVPQTLTYSRNEGHFLGSNFHGVTDDRTTLFDGEEGRREDDLLPSLRSSNSKAHLISSQLSQWNYNNNRVLLKRSILKTQAFMDQLQEENNIRPIFIAANDEREKLHVLQLNIKLDGQYNTKEKNGFNIEKKALSKLFHSQIVSVTNHLNALKKRVDDVSSKVFITGDVNTGKSALCNSLLKQRLLPEDQLPCTNVFSEILEARENDGIEEVHAIPLNIAPTLKEAIDMYSIQNPKTYEIHTLKELPDLVPQNGKYALLKIYIKDDKRPASTSLLRNGTVDISLIDSPGLNMDSLQTAEVMSRQEEIDLVIFVVNAENQLTLSAKEFISLASREKKLMFFVVKKFDKIRDKQRCKELILKQIRDLSPETYKRAADFVHFVSKNGDELPHYHNENDNEDHGDRKPDDDPYSSSDPDPDFDSLEDSLRNFVLKKRSLSKLLPAKTYLSKLLSDIIMISKSNMKMYSEEEIKINEQLETLRPEILSARAKCNDLTTSVDQMAEQTITMTYNNTKEALLNALDVPLHEYPKYQGLGQIYDFIFSTEAFIANQIDESIGSSELFAKQKTDLLVKKIYEIGKNELGDDFMCERVFRSELMFRKRKHLIGKRLKVSLSITDLFAPTWKGFLSYLSWQKPVTAPLPDIEGQTNEGQIGLMKYLGLKNYPLTQYWSRPSLLFTSKIPTLTLYFLGSTKVVGNIILNGIKLSSWSSLKKLSVPVIVVGSLLGLTYLIHDLPRALPMNLSIKYKRKLQELDYIHLNAQRTSNEVRDVLRVPTREILRSCEIIMDKKQITKKELENKKESNLLSIKFFQSLYEGTVAQKLMVEEINLDID
modifications: unmodified and ubiquitylated forms both present; K48-linked ubiquitin chains conjugated to lysine 398
notes: Fzo1, the yeast mitofusin (large dynamin-related GTPase of the mitochondrial outer membrane); The immunoprecipitate holds a mix of unmodified and ubiquitylated Fzo1; also called HA-Fzo1; wt Fzo1; source: yeast (isogenic to S288c), genomically HA-tagged or expressed from the centromeric plasmid pRS316 in Δfzo1 cells; in solubilized crude mitochondrial extracts
stoichiometry N: 2
